Assay results published in publication PMC8307404, “Crystal Structure-Guided Design of Bisubstrate Inhibitors and Photoluminescent Probes for Protein Kinases of the PIM Family” (Molecules, 2021).
Square brackets hold non-standard residues; d marks the D form. Peptide text beside a SMILES is read from it. * marks the point of attachment. X3 = O=C(CCCCCNCc1nc2c(sc3cc(Br)cnc32)c(=O)[nH]1)*

Key:
Test in all cases: Kinase profiling (radiometric filter-binding)
Format in all cases: biochemical
SRPK1 = SRPK1 (Homo sapiens, UniProt Q96SB4); conditions: SRPK1, 1 µM inhibitor; read-out: Residual activity, %
Sequence of SRPK1 (Q96SB4 whole entry): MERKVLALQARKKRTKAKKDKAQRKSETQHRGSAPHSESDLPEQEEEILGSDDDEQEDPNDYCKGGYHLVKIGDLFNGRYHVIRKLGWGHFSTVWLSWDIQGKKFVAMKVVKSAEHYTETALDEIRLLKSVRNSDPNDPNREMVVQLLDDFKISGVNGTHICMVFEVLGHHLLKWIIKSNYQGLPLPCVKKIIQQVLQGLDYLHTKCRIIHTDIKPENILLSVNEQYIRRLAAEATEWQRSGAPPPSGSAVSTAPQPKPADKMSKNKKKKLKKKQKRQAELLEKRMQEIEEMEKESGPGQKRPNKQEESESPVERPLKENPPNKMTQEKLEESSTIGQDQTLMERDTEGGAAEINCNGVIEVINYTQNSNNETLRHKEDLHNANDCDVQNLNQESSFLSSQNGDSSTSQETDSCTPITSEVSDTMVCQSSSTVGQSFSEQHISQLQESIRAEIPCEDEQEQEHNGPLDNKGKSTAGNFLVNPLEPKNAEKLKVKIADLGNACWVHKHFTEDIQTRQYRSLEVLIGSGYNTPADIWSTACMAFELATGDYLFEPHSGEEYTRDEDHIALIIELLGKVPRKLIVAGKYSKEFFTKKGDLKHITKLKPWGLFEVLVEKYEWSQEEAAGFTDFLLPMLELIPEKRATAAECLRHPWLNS
Procedure, shortened: (§1)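 Radiometric filter-binding; human PKs; ATP ≤ KM per kinase; compound 1 µM final; readout = % residual activity vs no-inhibitor control.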

TTBK2 = TTBK2 (Homo sapiens, UniProt Q6IQ55); conditions: TTBK2, 1 µM inhibitor; read-out: Residual activity, %
Sequence of TTBK2 (Q6IQ55 whole entry): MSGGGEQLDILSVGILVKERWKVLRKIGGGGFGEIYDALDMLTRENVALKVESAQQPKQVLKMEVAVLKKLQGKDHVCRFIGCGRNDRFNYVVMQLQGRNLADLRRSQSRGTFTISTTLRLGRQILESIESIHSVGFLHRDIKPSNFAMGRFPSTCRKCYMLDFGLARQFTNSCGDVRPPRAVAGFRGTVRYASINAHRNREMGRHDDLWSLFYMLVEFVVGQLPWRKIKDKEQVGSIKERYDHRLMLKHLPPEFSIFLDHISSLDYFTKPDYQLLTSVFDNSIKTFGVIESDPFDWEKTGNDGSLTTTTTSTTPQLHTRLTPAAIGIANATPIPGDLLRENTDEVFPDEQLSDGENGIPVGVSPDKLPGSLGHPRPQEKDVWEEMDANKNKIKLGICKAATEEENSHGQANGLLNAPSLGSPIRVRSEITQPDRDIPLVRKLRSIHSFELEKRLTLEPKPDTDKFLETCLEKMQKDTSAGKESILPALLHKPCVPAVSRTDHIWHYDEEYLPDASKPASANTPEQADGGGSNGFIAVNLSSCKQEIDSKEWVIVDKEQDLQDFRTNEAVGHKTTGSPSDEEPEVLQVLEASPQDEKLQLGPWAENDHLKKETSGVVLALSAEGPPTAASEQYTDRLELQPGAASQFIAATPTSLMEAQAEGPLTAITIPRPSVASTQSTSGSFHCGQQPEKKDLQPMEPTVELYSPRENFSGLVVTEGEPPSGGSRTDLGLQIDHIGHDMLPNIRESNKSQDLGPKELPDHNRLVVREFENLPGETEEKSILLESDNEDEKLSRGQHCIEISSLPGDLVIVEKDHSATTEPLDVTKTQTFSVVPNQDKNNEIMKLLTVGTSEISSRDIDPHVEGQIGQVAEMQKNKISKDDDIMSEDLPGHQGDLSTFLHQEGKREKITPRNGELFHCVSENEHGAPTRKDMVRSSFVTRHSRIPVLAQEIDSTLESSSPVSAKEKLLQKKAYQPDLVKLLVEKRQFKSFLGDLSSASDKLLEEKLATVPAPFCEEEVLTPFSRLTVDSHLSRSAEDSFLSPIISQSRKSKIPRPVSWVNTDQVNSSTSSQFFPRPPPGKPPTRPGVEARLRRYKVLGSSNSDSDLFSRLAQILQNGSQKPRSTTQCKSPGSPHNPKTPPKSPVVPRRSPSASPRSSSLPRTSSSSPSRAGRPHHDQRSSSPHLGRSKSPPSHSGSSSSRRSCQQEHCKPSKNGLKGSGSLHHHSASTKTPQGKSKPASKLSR
Procedure, shortened: as §1

IRAK1 = IRAK1 (Homo sapiens, UniProt P51617); conditions: IRAK1, 1 µM inhibitor; read-out: Residual activity, %
Sequence of IRAK1 (P51617 whole entry): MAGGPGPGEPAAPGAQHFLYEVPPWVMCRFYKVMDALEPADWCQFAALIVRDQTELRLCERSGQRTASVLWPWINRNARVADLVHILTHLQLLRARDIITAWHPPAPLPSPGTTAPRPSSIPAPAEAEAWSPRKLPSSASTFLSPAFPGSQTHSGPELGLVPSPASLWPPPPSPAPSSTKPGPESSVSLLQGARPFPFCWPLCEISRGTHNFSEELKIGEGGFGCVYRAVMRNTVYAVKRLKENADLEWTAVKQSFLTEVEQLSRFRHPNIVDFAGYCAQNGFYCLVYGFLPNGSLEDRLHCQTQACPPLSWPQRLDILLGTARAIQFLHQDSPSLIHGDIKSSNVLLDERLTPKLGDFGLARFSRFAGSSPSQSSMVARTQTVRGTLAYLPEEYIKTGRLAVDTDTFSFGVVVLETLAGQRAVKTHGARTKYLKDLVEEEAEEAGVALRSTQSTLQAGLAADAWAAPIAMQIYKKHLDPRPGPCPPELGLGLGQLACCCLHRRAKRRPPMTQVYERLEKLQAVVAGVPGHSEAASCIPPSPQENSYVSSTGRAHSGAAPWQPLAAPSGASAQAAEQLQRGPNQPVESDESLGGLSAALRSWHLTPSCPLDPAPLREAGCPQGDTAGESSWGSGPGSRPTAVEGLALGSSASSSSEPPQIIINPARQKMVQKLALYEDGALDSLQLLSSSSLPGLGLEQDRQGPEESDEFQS
Procedure, shortened: as §1

ULK2 = molecular target: T1, ULK2 (Homo sapiens, UniProt Q8IYT8); conditions: ULK2, 1 µM inhibitor; read-out: Residual activity, %
T1 sequence (Q8IYT8 1-1036): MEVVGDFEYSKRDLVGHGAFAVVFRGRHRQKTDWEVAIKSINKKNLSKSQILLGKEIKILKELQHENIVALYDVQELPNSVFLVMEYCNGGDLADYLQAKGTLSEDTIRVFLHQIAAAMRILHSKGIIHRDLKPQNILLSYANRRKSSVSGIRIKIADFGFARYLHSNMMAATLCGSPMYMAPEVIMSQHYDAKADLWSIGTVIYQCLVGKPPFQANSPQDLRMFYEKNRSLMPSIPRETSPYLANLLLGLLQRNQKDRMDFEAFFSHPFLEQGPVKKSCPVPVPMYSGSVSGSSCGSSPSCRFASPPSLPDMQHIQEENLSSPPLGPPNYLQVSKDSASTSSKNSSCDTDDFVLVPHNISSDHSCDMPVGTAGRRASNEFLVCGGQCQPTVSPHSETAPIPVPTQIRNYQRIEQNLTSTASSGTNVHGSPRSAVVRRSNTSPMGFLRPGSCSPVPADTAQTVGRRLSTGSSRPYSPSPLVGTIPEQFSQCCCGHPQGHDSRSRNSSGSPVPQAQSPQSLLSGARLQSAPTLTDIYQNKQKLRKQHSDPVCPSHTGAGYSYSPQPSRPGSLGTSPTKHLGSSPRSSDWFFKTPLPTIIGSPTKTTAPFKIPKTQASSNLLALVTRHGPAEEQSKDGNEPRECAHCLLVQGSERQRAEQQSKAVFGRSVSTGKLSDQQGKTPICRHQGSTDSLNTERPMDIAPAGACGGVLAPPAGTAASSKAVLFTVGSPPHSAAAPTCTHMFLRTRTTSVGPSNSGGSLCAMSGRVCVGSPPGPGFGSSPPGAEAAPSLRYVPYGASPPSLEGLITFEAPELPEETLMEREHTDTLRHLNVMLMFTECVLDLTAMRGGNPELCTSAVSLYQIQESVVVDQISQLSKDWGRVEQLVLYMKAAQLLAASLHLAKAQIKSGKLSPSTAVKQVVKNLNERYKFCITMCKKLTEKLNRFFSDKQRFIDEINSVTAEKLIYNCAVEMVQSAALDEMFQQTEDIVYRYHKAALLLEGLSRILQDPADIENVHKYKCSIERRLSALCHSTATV
Procedure, shortened: as §1

SmMLCK = SmMLCK (Homo sapiens, UniProt Q15746); conditions: 1 µM inhibitor, read-out: Residual activity, %
Sequence of SmMLCK (Q15746 923-1914): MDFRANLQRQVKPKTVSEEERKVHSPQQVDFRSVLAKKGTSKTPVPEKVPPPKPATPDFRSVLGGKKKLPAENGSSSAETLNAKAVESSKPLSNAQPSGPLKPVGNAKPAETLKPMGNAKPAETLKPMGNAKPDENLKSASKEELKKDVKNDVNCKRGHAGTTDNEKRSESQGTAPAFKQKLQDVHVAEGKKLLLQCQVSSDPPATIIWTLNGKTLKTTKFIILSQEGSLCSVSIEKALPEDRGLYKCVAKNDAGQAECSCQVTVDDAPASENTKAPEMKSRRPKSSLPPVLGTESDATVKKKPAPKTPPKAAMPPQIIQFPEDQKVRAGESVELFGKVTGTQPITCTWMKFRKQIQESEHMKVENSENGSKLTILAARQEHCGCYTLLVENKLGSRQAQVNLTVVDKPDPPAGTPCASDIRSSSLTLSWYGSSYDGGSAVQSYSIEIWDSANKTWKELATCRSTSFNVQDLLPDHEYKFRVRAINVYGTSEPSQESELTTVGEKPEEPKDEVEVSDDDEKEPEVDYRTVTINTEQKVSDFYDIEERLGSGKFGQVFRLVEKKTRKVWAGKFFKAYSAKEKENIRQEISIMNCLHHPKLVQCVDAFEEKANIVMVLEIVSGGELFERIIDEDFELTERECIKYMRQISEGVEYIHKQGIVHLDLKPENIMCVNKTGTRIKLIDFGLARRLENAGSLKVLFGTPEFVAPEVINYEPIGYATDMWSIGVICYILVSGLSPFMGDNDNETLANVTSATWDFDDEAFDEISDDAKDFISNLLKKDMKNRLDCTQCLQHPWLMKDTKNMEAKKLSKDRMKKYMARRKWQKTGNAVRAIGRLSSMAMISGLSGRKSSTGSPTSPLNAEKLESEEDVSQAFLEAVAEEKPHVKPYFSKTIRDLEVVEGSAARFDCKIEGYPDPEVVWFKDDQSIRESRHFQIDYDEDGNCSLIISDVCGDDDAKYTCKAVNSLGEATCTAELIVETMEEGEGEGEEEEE
Procedure, shortened: as §1

MARK3 = MARK3 (Homo sapiens, UniProt P27448); conditions: MARK3, 1 µM inhibitor; read-out: Residual activity, %
Sequence of MARK3 (P27448 whole entry): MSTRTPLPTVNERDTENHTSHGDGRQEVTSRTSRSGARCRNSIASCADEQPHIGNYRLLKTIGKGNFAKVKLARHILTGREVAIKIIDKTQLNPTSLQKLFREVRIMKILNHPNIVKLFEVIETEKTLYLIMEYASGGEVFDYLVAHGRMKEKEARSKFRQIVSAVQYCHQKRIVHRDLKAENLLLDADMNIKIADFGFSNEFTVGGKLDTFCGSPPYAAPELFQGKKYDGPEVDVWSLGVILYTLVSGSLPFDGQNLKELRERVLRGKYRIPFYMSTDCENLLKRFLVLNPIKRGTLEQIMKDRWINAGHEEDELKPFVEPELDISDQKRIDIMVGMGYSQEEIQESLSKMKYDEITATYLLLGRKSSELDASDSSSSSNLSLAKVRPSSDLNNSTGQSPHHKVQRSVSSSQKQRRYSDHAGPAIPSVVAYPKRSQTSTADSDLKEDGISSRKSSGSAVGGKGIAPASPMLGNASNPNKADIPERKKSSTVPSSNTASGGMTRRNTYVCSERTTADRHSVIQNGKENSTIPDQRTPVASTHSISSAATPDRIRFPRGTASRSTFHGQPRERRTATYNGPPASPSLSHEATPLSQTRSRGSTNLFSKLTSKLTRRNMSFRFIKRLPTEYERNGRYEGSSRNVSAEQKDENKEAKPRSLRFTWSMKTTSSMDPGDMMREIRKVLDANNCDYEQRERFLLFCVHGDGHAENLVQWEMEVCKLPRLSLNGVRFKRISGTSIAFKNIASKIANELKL
Procedure, shortened: as §1

PDK1 = molecular target: T2, PDK1 (Homo sapiens, UniProt O15530); conditions: PDK1, 1 µM inhibitor; read-out: Residual activity, %
T2 sequence (O15530 1-556): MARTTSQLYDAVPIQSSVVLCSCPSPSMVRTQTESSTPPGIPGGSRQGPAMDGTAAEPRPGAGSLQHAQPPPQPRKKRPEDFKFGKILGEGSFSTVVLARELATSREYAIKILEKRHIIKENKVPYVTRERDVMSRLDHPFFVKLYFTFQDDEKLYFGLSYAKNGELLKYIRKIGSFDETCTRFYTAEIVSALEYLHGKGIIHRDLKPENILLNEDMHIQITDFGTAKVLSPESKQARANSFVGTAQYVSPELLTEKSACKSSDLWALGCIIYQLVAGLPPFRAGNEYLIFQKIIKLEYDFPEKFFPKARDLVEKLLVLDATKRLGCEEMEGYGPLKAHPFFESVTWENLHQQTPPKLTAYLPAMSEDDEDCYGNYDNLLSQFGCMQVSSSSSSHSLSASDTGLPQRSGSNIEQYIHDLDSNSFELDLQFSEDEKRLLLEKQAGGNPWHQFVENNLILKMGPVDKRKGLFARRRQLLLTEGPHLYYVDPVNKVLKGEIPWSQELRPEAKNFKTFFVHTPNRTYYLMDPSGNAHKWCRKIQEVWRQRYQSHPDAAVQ
Procedure, shortened: as §1

IRAK4 = molecular target: T3, IRAK4 (Homo sapiens, UniProt Q9NWZ3); conditions: IRAK4, 1 µM inhibitor; read-out: Residual activity, %
T3 sequence (Q9NWZ3 1-460): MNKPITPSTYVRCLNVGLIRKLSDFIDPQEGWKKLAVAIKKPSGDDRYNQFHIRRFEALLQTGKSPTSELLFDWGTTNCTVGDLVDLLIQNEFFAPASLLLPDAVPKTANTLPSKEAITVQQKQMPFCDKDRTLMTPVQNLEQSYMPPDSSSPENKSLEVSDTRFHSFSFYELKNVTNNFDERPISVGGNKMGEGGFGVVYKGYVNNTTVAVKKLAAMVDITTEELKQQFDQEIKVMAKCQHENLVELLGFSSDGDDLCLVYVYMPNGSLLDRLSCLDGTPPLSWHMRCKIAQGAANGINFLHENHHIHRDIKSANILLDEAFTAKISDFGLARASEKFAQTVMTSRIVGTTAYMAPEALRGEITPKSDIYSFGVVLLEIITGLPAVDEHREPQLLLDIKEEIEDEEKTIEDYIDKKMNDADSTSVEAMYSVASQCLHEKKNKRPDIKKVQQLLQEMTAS
Procedure, shortened: as §1

CSK = CSK (Homo sapiens, UniProt P41240); conditions: 1 µM inhibitor, read-out: Residual activity, %
Sequence of CSK (P41240 whole entry): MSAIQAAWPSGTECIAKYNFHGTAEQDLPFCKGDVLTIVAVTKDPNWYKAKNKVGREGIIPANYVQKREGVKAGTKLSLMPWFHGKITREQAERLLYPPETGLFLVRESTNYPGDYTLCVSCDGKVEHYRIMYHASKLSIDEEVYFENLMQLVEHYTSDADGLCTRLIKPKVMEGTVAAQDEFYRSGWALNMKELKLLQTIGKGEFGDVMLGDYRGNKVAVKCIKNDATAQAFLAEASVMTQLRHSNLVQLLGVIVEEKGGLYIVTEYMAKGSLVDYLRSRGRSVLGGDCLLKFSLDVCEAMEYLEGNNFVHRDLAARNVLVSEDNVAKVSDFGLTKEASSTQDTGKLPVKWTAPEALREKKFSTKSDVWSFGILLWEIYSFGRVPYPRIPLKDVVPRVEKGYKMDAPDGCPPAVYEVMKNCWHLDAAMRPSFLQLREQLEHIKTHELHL
Procedure, shortened: as §1

CDK9-Cyclin T1 = CDK9-Cyclin T1 (Homo sapiens, UniProt P50750); conditions: CDK9-Cyclin T1, 1 µM inhibitor; read-out: Residual activity, %
Procedure, shortened: as §1

N=C(N)NCCC[C@@H](NC(=O)CCCCCNC(=O)Cn1cnc2c(I)c(I)c(I)c(I)c21)C(=O)N[C@H](CCCNC(=N)N)C(=O)N[C@H](CCCNC(=N)N)C(=O)N[C@H](CCCNC(=N)N)C(=O)N[C@H](CCCNC(=N)N)C(=O)N[C@H](CCCNC(=N)N)C(=O)N[C@H](CCCCN)C(N)=O [ARC-3125, TIBI-CH2-C(=O)-Ahx-(D-Arg)6-D-Lys-NH2]
remaining activity at 1 µM (SRPK1): 54 ± 1%
remaining activity at 1 µM (TTBK2): 101 ± 24%
remaining activity at 1 µM (IRAK1): 16 ± 3%
remaining activity at 1 µM (ULK2): 34 ± 3%
remaining activity at 1 µM (SmMLCK): 66 ± 1%
remaining activity at 1 µM (MARK3): 72 ± 1%
remaining activity at 1 µM (PDK1): 123 ± 7%
remaining activity at 1 µM (IRAK4): 73 ± 2%
remaining activity at 1 µM (CSK): 85 ± 2%
remaining activity at 1 µM (CDK9-Cyclin T1): 55 ± 1%

N=C(N)NCCC[C@@H](NC(=O)CCCCCNCc1nc2c(sc3cc(Br)cnc32)c(=O)[nH]1)C(=O)N[C@H](CCCNC(=N)N)C(=O)N[C@H](CCCNC(=N)N)C(=O)N[C@H](CCCNC(=N)N)C(=O)N[C@H](CCCNC(=N)N)C(=O)N[C@H](CCCNC(=N)N)C(=O)N[C@H](CCCCN)C(N)=O [ARC-3126, BPTP-Ahx-(D-Arg)6-D-Lys-NH2] (X3-[dR][dR][dR][dR][dR][dR][dK]-NH2)
remaining activity at 1 µM (SRPK1): 89 ± 5%
remaining activity at 1 µM (TTBK2): 77 ± 2%
remaining activity at 1 µM (IRAK1): 120 ± 2%
remaining activity at 1 µM (ULK2): 104 ± 9%
remaining activity at 1 µM (SmMLCK): 116 ± 39%
remaining activity at 1 µM (MARK3): 112 ± 17%
remaining activity at 1 µM (PDK1): 111 ± 13%
remaining activity at 1 µM (IRAK4): 97 ± 2%
remaining activity at 1 µM (CSK): 91 ± 18%
remaining activity at 1 µM (CDK9-Cyclin T1): 104 ± 3%

N=C(N)NCCC[C@@H](NC(=O)CNC(=O)[C@@H](CCCNC(=N)N)NC(=O)[C@@H](CCCNC(=N)N)NC(=O)CCCCCCCNCc1nc2c(sc3cc(Br)cnc32)c(=O)[nH]1)C(=O)N[C@H](CCCCN)C(N)=O [Compound 1, BPTP-Aoc-(D-Arg)2-Gly-D-Arg-D-Lys-NH2]
remaining activity at 1 µM (SRPK1): 102 ± 1%
remaining activity at 1 µM (TTBK2): 109 ± 6%
remaining activity at 1 µM (IRAK1): 131 ± 17%
remaining activity at 1 µM (ULK2): 115 ± 5%
remaining activity at 1 µM (SmMLCK): 98 ± 5%
remaining activity at 1 µM (MARK3): 100 ± 6%
remaining activity at 1 µM (PDK1): 116 ± 3%
remaining activity at 1 µM (IRAK4): 110 ± 3%
remaining activity at 1 µM (CSK): 141 ± 10%
remaining activity at 1 µM (CDK9-Cyclin T1): 110 ± 10%

N=C(N)NCCC[C@@H](NC(=O)CNC(=O)[C@@H](CCCNC(=N)N)NC(=O)[C@@H](CCCNC(=N)N)NC(=O)CCCCCCCNCc1nc2c(sc3ccc(Br)cc32)c(=O)[nH]1)C(=O)N[C@H](CCCCN)C(N)=O [Compound 2, BBTP-Aoc-(D-Arg)2-Gly-D-Arg-D-Lys-NH2]
remaining activity at 1 µM (SRPK1): 113 ± 7%
remaining activity at 1 µM (TTBK2): 125 ± 12%
remaining activity at 1 µM (IRAK1): 134 ± 21%
remaining activity at 1 µM (ULK2): 127 ± 9%
remaining activity at 1 µM (SmMLCK): 98 ± 9%
remaining activity at 1 µM (MARK3): 102 ± 7%
remaining activity at 1 µM (PDK1): 121 ± 7%
remaining activity at 1 µM (IRAK4): 108 ± 8%
remaining activity at 1 µM (CSK): 112 ± 20%
remaining activity at 1 µM (CDK9-Cyclin T1): 101 ± 20%

N=C(N)NCCC[C@@H](NC(=O)CNC(=O)[C@@H](CCCNC(=N)N)NC(=O)[C@@H](CCCNC(=N)N)NC(=O)Cn1cc(CNCc2nc3c(sc4ccc(Br)cc43)c(=O)[nH]2)nn1)C(=O)N[C@H](CCCCN)C(N)=O [Compound 3, BBTP-Amt-(D-Arg)2-Gly-D-Arg-D-Lys-NH2]
remaining activity at 1 µM (SRPK1): 91 ± 2%
remaining activity at 1 µM (TTBK2): 105 ± 15%
remaining activity at 1 µM (IRAK1): 113 ± 11%
remaining activity at 1 µM (ULK2): 104 ± 11%
remaining activity at 1 µM (SmMLCK): 94%
remaining activity at 1 µM (MARK3): 100 ± 8%
remaining activity at 1 µM (PDK1): 118 ± 16%
remaining activity at 1 µM (IRAK4): 107 ± 7%
remaining activity at 1 µM (CSK): 116 ± 5%
remaining activity at 1 µM (CDK9-Cyclin T1): 90 ± 18%
